Holding throughout (conditions): protein: recombinant; chain copies: 2; single strand 25 nt
In data set [1] the target is T1, nsP13 helicase (SARS-CoV-2, UniProt P0DTD1 5325-5925). The data set is described as follows: competition, 500 nM ssDNA-F, 30 nM nsP13.
In data set [2] the target is T1, nsP13 helicase. Kind of data set: competition, 500 nM ssDNA-F, 30 nM nsP13; 3 mM ATP, 5 mM Mg2+; K1/2 of TrapDNA.
In data set [3] the target is T1, nsP13 helicase. The data set is described as follows: competition, 500 nM ssDNA-F, 30 nM nsP13; 3 mM ATPgS, 5 mM Mg2+; K1/2 of TrapDNA.

For TCTAATGTAGTATAGTAATCCGCTC (ssDNA) [TrapDNA], the values for the IC50 in data set [1], in data set [2] and in data set [3] were 460 nM, 950 nM and 3100 nM, respectively.

Usually IC50 stands for the concentration that gives 50% inhibition.

The values above are taken from paper PMC12274814, “ATPase-dependent duplex nucleic acid unwinding by SARS-CoV-2 nsP13 relies on facile binding and translocation along single-stranded nucleic acid”.
